Holding throughout (assay): EMSA; 5 mM Ca2+; EMSA: 40 mM Tris-acetate pH 8.3, 0.1 mg/ml BSA, 10% glycerol, 5 mM CaCl2 or 0.1 mM EDTA, 1 nM DNA, room temperature, 15 min
For orientation: Mobility shift assays separate free from complexed probe on a gel.

In one series the target is T1, BsaWI D175A (UniProt Q6UQ65 1-272, D175A).
T1 sequence: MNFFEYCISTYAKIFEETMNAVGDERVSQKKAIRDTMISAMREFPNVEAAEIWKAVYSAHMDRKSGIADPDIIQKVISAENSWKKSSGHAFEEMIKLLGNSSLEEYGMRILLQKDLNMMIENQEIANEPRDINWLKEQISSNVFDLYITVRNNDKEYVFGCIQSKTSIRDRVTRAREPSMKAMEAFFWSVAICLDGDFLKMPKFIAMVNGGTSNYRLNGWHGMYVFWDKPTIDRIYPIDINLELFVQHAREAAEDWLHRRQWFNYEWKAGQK
The settings on record: protein: recombinant; chain copies: 4; label: 33P; blunt.

A further series has as its target T2, BsaWI E128A&R130A (UniProt Q6UQ65 1-272, E128A;R130A).
T2 sequence: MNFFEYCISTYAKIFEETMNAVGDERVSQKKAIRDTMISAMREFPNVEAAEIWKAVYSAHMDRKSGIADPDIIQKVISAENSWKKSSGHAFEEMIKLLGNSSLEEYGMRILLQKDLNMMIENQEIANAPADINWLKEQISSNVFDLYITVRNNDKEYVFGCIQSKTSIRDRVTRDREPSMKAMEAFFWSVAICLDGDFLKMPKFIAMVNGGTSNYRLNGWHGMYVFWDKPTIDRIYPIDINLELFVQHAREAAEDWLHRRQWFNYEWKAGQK
The settings on record: protein: recombinant; chain copies: 2; label: 33P; blunt.

The target of a further series is T3, BsaWI R259A&W262A (UniProt Q6UQ65 1-272, R259A;W262A).
T3 sequence: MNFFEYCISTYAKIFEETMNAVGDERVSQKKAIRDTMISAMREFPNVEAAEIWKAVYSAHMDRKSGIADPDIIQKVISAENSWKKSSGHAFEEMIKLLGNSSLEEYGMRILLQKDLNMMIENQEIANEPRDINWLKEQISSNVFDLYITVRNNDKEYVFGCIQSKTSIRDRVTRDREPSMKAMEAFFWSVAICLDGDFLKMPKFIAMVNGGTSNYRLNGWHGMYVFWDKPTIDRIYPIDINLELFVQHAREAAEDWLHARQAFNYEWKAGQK
To be noted: protein: recombinant; chain copies: 2; label: 33P; blunt.

The next series deals with T4, BsaWI wt (UniProt Q6UQ65 1-272).
T4 sequence: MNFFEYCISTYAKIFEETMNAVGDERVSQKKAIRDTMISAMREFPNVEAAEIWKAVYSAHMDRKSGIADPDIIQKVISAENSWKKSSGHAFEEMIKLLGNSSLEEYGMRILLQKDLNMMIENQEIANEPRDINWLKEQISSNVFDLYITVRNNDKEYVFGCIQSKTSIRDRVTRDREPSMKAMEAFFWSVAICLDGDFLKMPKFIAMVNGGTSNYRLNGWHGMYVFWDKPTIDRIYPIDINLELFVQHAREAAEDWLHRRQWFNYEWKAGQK
To be noted: protein: recombinant; chain copies: 4; label: 33P; blunt.

The target of the next series is T5, BsaWI E128A&W262A (UniProt Q6UQ65 1-272, E128A;W262A).
T5 sequence: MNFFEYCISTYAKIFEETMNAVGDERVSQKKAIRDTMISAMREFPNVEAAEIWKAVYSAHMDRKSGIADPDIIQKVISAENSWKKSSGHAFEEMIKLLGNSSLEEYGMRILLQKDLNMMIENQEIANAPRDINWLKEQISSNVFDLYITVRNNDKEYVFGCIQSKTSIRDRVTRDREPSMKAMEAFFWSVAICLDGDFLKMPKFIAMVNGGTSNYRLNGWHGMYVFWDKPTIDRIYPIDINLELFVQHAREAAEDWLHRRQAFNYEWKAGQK
The settings on record: protein: recombinant; chain copies: 2; label: 33P; blunt.

A further series has as its target T6, BsaWI K85A (UniProt Q6UQ65 1-272, K85A).
T6 sequence: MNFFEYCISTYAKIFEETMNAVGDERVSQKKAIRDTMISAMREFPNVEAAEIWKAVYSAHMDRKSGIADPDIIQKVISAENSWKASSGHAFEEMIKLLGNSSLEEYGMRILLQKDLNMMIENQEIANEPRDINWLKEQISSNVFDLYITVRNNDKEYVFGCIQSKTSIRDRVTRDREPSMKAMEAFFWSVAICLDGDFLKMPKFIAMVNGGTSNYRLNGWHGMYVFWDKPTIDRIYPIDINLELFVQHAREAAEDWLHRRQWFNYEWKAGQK
The settings on record: protein: recombinant; chain copies: 4; label: 33P; blunt.

A further series has as its target T7, BsaWI R130A (UniProt Q6UQ65 1-272, R130A).
T7 sequence: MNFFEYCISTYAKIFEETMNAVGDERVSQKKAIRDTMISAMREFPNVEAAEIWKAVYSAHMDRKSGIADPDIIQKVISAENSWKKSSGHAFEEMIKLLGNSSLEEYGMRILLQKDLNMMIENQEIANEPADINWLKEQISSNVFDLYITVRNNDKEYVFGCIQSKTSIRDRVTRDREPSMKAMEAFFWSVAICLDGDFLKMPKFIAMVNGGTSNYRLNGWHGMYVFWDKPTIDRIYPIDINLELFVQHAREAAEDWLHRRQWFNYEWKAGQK
The settings on record: protein: recombinant; chain copies: 2; label: 33P; blunt.

B1: SP (dsDNA)
DNA 1: GCCTTTCGGTTTACCGGTGTCATTCCGCTG
DNA 2: CAGCGGAATGACACCGGTAAACCGAAAGGC
With B1, the dissociation constant (Kd) came out at 6.1 ± 2.3 nM with BsaWI D175A; 2.1 ± 0.5 nM with BsaWI E128A&R130A; 2.6 ± 0.6 nM in the series with BsaWI R259A&W262A; 2.9 ± 0.4 nM with BsaWI wt; 2.7 ± 0.7 nM with BsaWI E128A&W262A; 229 ± 9.1 nM with BsaWI K85A. Moreover, in the series with BsaWI R130A, the Kd amounted to 3.9 ± 0.6 nM.

As usually defined, the Kd is the constant that tells how readily two partners part at equilibrium.

The record behind these values is publication PMC4652773, “Functional significance of protein assemblies predicted by the crystal structure of the restriction endonuclease BsaWI”.
